Laboratory results taken from patent US20210230266A1 (SINGAPORE HEALTH SERVICES PTE, published 2021).
Substitutions are numbered along the chain they refer to.

T1: Mouse IL-11 (mouse, UniProt P47873 22-199, limits assumed)
T1 construct: also called murine IL-11; recombinant murine IL-11
T1 sequence (looked up): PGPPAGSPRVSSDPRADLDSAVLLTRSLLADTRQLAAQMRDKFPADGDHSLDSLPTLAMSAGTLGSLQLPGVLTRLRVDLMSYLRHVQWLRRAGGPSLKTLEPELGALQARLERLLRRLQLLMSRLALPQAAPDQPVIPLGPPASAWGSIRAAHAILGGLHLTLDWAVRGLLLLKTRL

T2: Human IL-11 (human, UniProt P20809 22-199)
T2 construct: Recombinant human IL-11 (GenScript Cat. No. Z03108-1) or IL-11 secreted by human cells; the mature form is said to have 178 residues; also called recombinant human IL-11; endogenously produced IL-11
T2 sequence: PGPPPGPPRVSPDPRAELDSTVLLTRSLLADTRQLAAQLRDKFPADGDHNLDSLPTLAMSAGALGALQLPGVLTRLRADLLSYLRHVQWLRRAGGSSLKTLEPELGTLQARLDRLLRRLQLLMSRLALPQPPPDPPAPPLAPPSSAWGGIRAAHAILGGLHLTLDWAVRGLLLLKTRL

B1: YU100-G10 (antibody)
chain: QVQLVQSGGGVVQPGRSLRLSCAASGFTFSSYGMHWVRQAPGKGLEWVAVISYDGSNKYYADSVKGRFTISRDNSKNTLYLQMNSLRAEDTAVYYCAKIGATDPLDYWGQGTLVTVSSGSASAPKLEEGEFSEARVQSALTQPASVSGSLGQSITMSCTGTRRDVGGYDFVSWYQQYPGKAPKLIIYDVSNRPSGVSNRFTGSKSGNTASLTISGLQAEDEADYYCCSYAGTYTWVFGGGTKVTVL
B2: YU100-E10 (antibody)
chain: QVQLVQSGGGVVQPGRSLRLSCAASGFTFSSYGMHWVRQAPGKGLEWVAVISYDGSNKYYADSVKGRFTISRDNSKNTLYLQMNSLRAEDTAVYYCAKIGATDPLDYWGQGTLVTVSSGSASAPKLEEGEFSEARVQSALTQPRSVSGSPGQSVTISCTGTSSDVGGYNYVSWYQQHPGKAPKLMIFDVSQRPSGVPDRFSASKSGNTASLTISGLQAEDEADYYCCSYAGSYTWVFGGGTKLTVL
B3: YU112-G01 (antibody)
chain: QVQLVESGGGVVQPGRSLRLSCAASGFTFSSYGMHWVRQAPGKGLEWVAVISYDGSNKYYADSVKGRFTISRDNSKNTLYLQMNSLRAEDTAVYYCAKLSGPNGVDYWGQGTLVTVSSGSASAPKLEEGEFSEARVQSALTQPRSVSGSPGQSVTISCTGTISDVGGYNYVSWYQQHPGKAPKLMIYDVTKRPSGVPDRFSGSKSGNTASLTISGLQAEDEAGYYCSSYAGSYTWVFGGGTELTVL
B4: YU100-E08 (antibody)
chain: QVQLVQSGGGVVQPGRSLRLSCAASGFTFSSYAMHWVRQAPGKGLEWVAVISYDGSNKYYADSVKGRFTISRDNSKNTLYLQMNSLRAEDTAVYYCARIMGYDYGDYDVVDYWGQGTLVTVSSGSASAPKLEEGEFSEARVQSALTQPRSVSGSPGQSVTISCTGTSSDVGGYNYVSWYQQHPGKAPKLMIYDVSRRPSGVPDRFSGSKSGNTASLTISGLQAEDEADYYCCSYAGNYTWMFGGGTKLTVL
B5: YU100-G11 (antibody)
chain: B4 chain with Q6E, A33G, M190T, I191L, S195G, R196K, N237G, M241V, L248V, L251V
B6: YU100-E09 (antibody)
chain: B4 chain with Q6E, G172D, N174D, M190I, S195T, R196K, V201I, N237S, M241V, G244R
B7: YU112-C09 (antibody)
chain: QVQLVQSGGGVVQPGRSLRLSCAASGFTFGSYGMHWVRQAPGKGLEWVAVISYDGSNKYYADSVKGRFTISRDNSKNTLYLQMNSLRAEDTAVYYCAKGSYYFDYWGQGTLVTVSSGSASAPKLEEGEFSEARVETTLTQSPATLSVSPGERATLSCRASQSFSSSYLAWYQQKPGQAPRLLIYGASRRAPGIPDRFSGSGSGTDFSLTISRLEPEDFAVYYCQQSSTSPTWAFGRGTKVEVK
B8: YU100-F06 (antibody)
chain: QVQLVESGGGVVQPGRSLRLSCAASGFTFSSYGMHWVRQAPGKGLEWVAVISYDGSNKYYADSVKGRFTISRDNSKNTLYLQMNSLRAEDTAVYYCARIMGYDYGDYDVVDYWGQGTLVTVSSGSASAPKLEEGEFSEARVQSALTQPRSVSGSPGQSVTISCTGSSSDVGGYNFVSWYRQHPGEAPKLVIFDVNKRPSGVPDRFSGSKSGNTASLTISGLQTEDEADYFCCSYAGGYTWVFGGGTKVTVV
B9: YU100-E07 (antibody)
chain: QVQLQESGGGVVQPGRSLRLSCAASGFTFSSYGMHWVRQAPGKGLEWVAVISYDGSNRYYADSVKGRFAISRDNSKNTLYLQMNSLRAEDTAVYYCAKIGATDPLDYWGQGTLVTVSSGSASAPKLEEGEFSEARVQSALTQPRSVSGSPGQSVTISCTGTSSDVGGYDYVSWYQQHPGKAPELMIYDVTKRPSGVADRFSGSKSGNTASLTISGLQAEDEADYYCCSYAGRYTWVFGGGTKLTVL
B10: YU100-D07 (antibody)
chain: QVQLVESGGGVVQPGRSLRLSCAASGFTFSSYAMHWVRQAPGKGLEWVAVISYDGSNKYYADSVKGRLTISRDNSKNTLYLQMNSLRAEDTAVYYCARIMGYDYGDYDVVDYWGQGTLVTVSSGSASAPKLEEGEFSEARVQSALTQPRSVSGSPGQSVTISCTGTSGDVGTYDYVSWYQQHPGKAPKLMIYDVSKRPSGVPDRFSGSKSGNTASLTISGLQAEDEADYYCNSYAGSYTWVFGGGTKLTVLGQPKTAPSVTLFPPSS
B11: YU100-F07 (antibody)
chain: QVQLVESGGGVVQPGRSLRLSCAASGFTFSSYAMHWVRQAPGKGLEWVAVISYDGSNKYYADSVKGRFTISRDNSKNTLYLQMNSLRAEDTAVYYCARIMGYDYGDYDVVDYWGQGTLVTVSSGSASAPKLEEGEFSEARVQSALTQPRSVSVSPGQSVTISCTGTSSDVGGYEYVSWYQQHPGKAPKLMIYDVTKRPSGVPDRFSGSKSGNTASLTISGLQGEDAADYYCCSYAGSYTWVFGGGTTVTVL
B12: YU100-F11 (antibody, V domains shown)
VH: QVQLVESGGGVVQPGRSLRLSCAASGFTFSSYGMHWVRQAPGKGLEWVAVISYDGSNKYYADSVKGRFTISRDNSKNTLYLQMNSLRAEDTAVYYCAKIGATDPLDYWGQGTLVTVSS
VL: QSALTQPASVSGSPGQSITISCTGSSSDVAGYNYVSWYQQHPGKAPKLMIYDVTKRPSGVPDRFSGSKSGNTASLTISGLQAEDEADYYCCSYAGSYTWVFGGGTQLTVLG
notes: light chain-shuffled human anti-IL-11 clone
B13: YU100-B09 (antibody, V domains shown)
VH: B12 VH with E6Q
B14: YU100-F05 (antibody)
chain: QVQLQQSGGGVVQPGRSLRLSCAASGFTFSSYGMHWVRQAPGKGLEWVAVISYDGSNKYYADSVKGRFTISRDNSKNTLYLQMNSLRAEDTAVYYCAKIGATDPLDYWGQGTLVTVSSGSASAPKLEEGEFSEARVQAVLTQPASVSGSPGQSITISCTGTSSDIGGYNYVSWYQQHPGTAPKLMIYDVSSRPSGVSNRFSGSKSGNTASLTISGLQAEDEADYYCCSYAGSYTWVFGGGTKMTVL

Target: T1, Mouse IL-11
Assay: ELISA
Method: (§1) The soluble scFv were produced by recombinant expression in E. coli, and analysed for their ability to bind to human IL-11 and murine IL-11 by ELISA. Briefly, the respective antigen was coated to wells of an ELISA plate, the cell culture supernatant containing the respective scFv was added at a 1:2 dilution, and binding was detected.

Binder	mIL11 - average signal
B1	0.404
B2	0.297
B3	0.794
B4	0.251
B5	0.507
B6	0.335
B7	0.898
B8	0.481
B9	0.247
B10	0.322
B11	0.148
B12	0.395
B13	0.293
B14	0.542

Target: T2, Human IL-11
Assay: ELISA
Method: as §1

Binder	hIL11 - average signal
B1	0.262
B2	0.338
B3	0.528
B4	0.214
B5	0.498
B6	0.224
B7	0.593
B8	0.16
B9	0.193
B10	0.246
B11	0.172
B12	0.319
B13	0.21
B14	0.304

Target: T2, Human IL-11
Assay: cell-based or functional assay

Binder	MMP2 production, Experiment 1 (human atrial fibroblasts + TGFB1)	MMP2 production, Experiment 2 (human atrial fibroblasts + TGFB1)
B1	54 ng/mL	45.4 ng/mL
B2	56.1 ng/mL	47 ng/mL
B3	47.6 ng/mL	43.8 ng/mL
B4	48.2 ng/mL	59.7 ng/mL
B6	51.7 ng/mL	44.4 ng/mL
B9	52.1 ng/mL	46.5 ng/mL
B11	53.1 ng/mL	46.6 ng/mL
B12	44.5 ng/mL	37.6 ng/mL

Target: T2, Human IL-11
Assay: ELISA on coated recombinant human IL-11 (100 ng/well), scFv-Fc
Method: The light chain shuffled anti-IL-11 antibodies were analysed to determine the EC50 for binding to human IL-11 by ELISA according to standard methods. Briefly, wells of microtiter plates were coated with recombinant human IL-11 (100 ng/well), scFv-Fc comprising the VH and VL domains of the clones were added in a dilution series and antibody binding was detected using a polyclonal antibody detection system.

Binder	EC50
B1	0.034 µg/mL
B2	0.033 µg/mL
B4	0.032 µg/mL
B6	0.019 µg/mL
B9	0.023 µg/mL
B11	0.041 µg/mL
B12	0.027 µg/mL
